Test results published in publication PMC10693601.
“And” between values parts separate entries of the source, which are not always exact repeats. Equal entries are not always repeated.

Biological target: AIM2 (Absent In Melanoma 2), full length, without MBP tag, labeled with Alexa Fluor 488 (human) (UniProt O14862)
Assay: single-molecule confocal fluorescence microscopy with optical tweezers; Alexa 488-labeled protein (~0.2-14 nM) in the protein channel, on a single biotinylated lambda-phage dsDNA (48.5 kbp) tethered between two optically trapped streptavidin beads; 2D scans, movies and kymographs; oligomer size from photon counts (11 per fluorophore); 20 mM HEPES pH 7.5, 160 mM KCl, 1 mM BME, 0.1% Triton X-100, 5% glycerol; room temperature

Substance: AIM2 (Absent In Melanoma 2), full length, without MBP tag, labeled with Alexa Fluor 488 (from UniProt O14862 1-343) (natural protein)
- oligomer growth rate (highest observed): < 28 molecules/s
- oligomer growth rate (oligomers of 1-20 molecules, low nanomolar): 0.2 to 7 molecules/s
- oligomer growth rate at 0.5 nM AIM2: 7.4 s⁻¹
- oligomer growth rate at 1 nM AIM2 (bottom kymograph, dimer to hexamer): 94 s⁻¹
- oligomer growth rate at 1 nM AIM2 (middle kymograph, starting from a monomer): 5.8 s⁻¹
- oligomer growth rate at 2 nM AIM2: 10.7 s⁻¹
- oligomer growth rate at 2 nM AIM2 (4 to 6 molecules): 11.4 s⁻¹
- oligomer growth rate at 10 nM AIM2 (4 to 11 molecules): 25.3 s⁻¹
- oligomer growth rate at 10 nM AIM2 (top kymograph): 302 s⁻¹
- oligomer growth rate at 13.5 nM AIM2: 34 s⁻¹
- stoichiometry N: < 25 molecules and 13 molecules to 15 molecules (2×)
